We go through 3 molecules from publication PMC12658125, “Oligomerisation of Ku from Mycobacterium tuberculosis promotes DNA synapsis” (Nature Communications, 2025).

The target of one data set is T1, Ku-Mtb L13A/V14A (Mycobacterium tuberculosis, UniProt P9WKD9 1-273, L13A;V14A).
T1 sequence: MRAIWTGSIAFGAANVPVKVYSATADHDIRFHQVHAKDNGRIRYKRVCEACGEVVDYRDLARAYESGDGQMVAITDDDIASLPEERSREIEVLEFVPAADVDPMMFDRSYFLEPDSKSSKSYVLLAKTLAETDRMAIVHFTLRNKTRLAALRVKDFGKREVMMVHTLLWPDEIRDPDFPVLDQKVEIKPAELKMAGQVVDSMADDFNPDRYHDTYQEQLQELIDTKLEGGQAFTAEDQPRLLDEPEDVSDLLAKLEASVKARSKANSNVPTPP
The experiment in a line: cryo-EM. The following applies: protein: recombinant; tags: His (Ni-NTA purified); chain copies: 2; label: 5' FAM on strand 1; 3' overhang 20 nt on strand 1.

Data set [1] deals with the molecule itself. Kind of data set: cryo-EM structure; apo Ku-Mtb without DNA; 20 mM Tris-HCl pH 8, 75 mM NaCl, 5 mM MgCl2, 2 mM DTT, 8 mM CHAPSO; C2 symmetry imposed; step: protomers to homodimer.
Data set [2] concerns the molecule itself. The experiment in a line: cryo-EM micrographs and 2D class averages.

B1: FAM-DNA, 32 bp with 3' 20dT overhang (mixed)
DNA 1: GGAATGTAACCATCGTTGGTCGGCAGCAGGGCTTTTTTTTTTTTTTTTTTTT
DNA 2: GCCCTGCTGCCGACCAACGATGGTTACATTCC
Regarding B1, the binding result with Ku-Mtb L13A/V14A was “binds”.

B2: Ku protein from Mycobacterium tuberculosis, wild type (natural protein)
chain: MRAIWTGSIAFGLVNVPVKVYSATADHDIRFHQVHAKDNGRIRYKRVCEACGEVVDYRDLARAYESGDGQMVAITDDDIASLPEERSREIEVLEFVPAADVDPMMFDRSYFLEPDSKSSKSYVLLAKTLAETDRMAIVHFTLRNKTRLAALRVKDFGKREVMMVHTLLWPDEIRDPDFPVLDQKVEIKPAELKMAGQVVDSMADDFNPDRYHDTYQEQLQELIDTKLEGGQAFTAEDQPRLLDEPEDVSDLLAKLEASVKARSKANSNVPTPP
notes: also called Ku-Mtb; KuMtb
On to B2, for which the “stoichiometry N” value in data set [1] worked out at 2.

B3: Ku-Mtb S201A/Q197A double mutant (natural protein)
chain: MRAIWTGSIAFGLVNVPVKVYSATADHDIRFHQVHAKDNGRIRYKRVCEACGEVVDYRDLARAYESGDGQMVAITDDDIASLPEERSREIEVLEFVPAADVDPMMFDRSYFLEPDSKSSKSYVLLAKTLAETDRMAIVHFTLRNKTRLAALRVKDFGKREVMMVHTLLWPDEIRDPDFPVLDQKVEIKPAELKMAGAVVDAMADDFNPDRYHDTYQEQLQELIDTKLEGGQAFTAEDQPRLLDEPEDVSDLLAKLEASVKARSKANSNVPTPP
notes: source: over-expressed, purified
Turning to B3, in data set [2], the binding result is “binds”.

In general, stoichiometry N refers to the number of molecules, sites or subunits per partner or assembly.
